Publication PMC2816707, “A Humanized Anti-VEGF Rabbit Monoclonal Antibody Inhibits Angiogenesis and Blocks Tumor Growth in Xenograft Models” (PLoS ONE, 2010)
Positions count from the first letter of the chain named.

Key:
[1] = biological target: T1, Recombinant human VEGF165 (human, UniProt P15692-4, strain); test: cell-based or functional assay
Target sequence in this assay (P15692 whole entry, looked up, change not shown, the tested form may be a part): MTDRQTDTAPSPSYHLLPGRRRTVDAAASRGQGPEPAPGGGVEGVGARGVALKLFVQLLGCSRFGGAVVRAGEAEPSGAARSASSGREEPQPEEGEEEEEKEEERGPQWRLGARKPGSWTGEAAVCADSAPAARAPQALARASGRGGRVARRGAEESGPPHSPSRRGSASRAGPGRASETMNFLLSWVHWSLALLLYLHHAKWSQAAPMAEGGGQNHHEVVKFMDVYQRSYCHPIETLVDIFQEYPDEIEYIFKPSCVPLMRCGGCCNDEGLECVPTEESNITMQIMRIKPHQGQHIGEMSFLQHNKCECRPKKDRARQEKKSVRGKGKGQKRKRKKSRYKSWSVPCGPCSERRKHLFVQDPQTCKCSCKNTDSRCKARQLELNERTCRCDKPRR

[2] = biological target: T2, rabbit IgG Fc-hVEGF (human VEGF165) fusion protein, wild type (human, UniProt P15692-4); test: ELISA; VEGF capture ELISA: Fc-VEGF supernatants captured on coated goat anti-rabbit IgG (H+L); hEBV321 at various concentrations, 1 hr at 37°C; detected by anti-human IgG alkaline phosphatase; conditions: one partner purified
T2 construct: also called Fc-VEGF; VEGF wild type; source: HEK-293E cells, transient transfection, cleared culture supernatant; not shown: Fc (rabbit IgG), N-terminal, kept

[3] = biological target: T1, Recombinant human VEGF165; test: SPR; BIAcore 3000; antibodies immobilised on CM5 chips by amine coupling (about 600 RU); VEGF165 (R&D Systems) injected at 0.2 to 50 nM, 35 µl/min, 25°C, HBS-P (10 mM HEPES pH 7.4, 150 mM NaCl, 0.005% P20); 1:1 binding model, global fit; conditions: both partners purified
[4] = biological target: T1, Recombinant human VEGF165; test: as above; conditions: both partners purified; remark: listed apart in the source
[5] = biological target: T1, Recombinant human VEGF165; test: ELISA; VEGF/VEGFR-2 interaction ELISA: 5 µg/ml Fc-VEGFR-2 (ECD) coated; antibody pre-incubated 1 hour with recombinant human VEGF (0.5 µg/ml final) before transfer to the plate; bound VEGF detected by a mouse anti-VEGF165 monoclonal antibody; triplicates; conditions: both partners purified
[6] = biological target: T1, Recombinant human VEGF165; test: ELISA; direct competition ELISA: human VEGF-A165 coated (0.05 µg/ml); reference antibody (0.04 µg/ml) mixed with increasing concentration of competitor, 1 hr at room temperature; bound reference antibody detected by anti-rabbit IgG Fc secondary antibody, chemiluminescence; conditions: both partners purified
Target sequence in this assay (P15692 whole entry, looked up, change not shown, the tested form may be a part): as above

[7] = biological target: T1, Recombinant human VEGF165; test: ELISA; VEGF/VEGFR-2 interaction ELISA: 5 µg/ml Fc-VEGFR-2 (ECD) coated; antibody pre-incubated 1 hour with recombinant human VEGF (0.5 µg/ml final) before transfer to the plate; bound VEGF detected by a mouse anti-VEGF165 monoclonal antibody; triplicates; conditions: both partners purified; remark: listed apart in the source
[8] = biological target: T1, Recombinant human VEGF165; test: ELISA; antigen binding ELISA with the antigen coated on a 96-well plate; paired H and L chains of the 15 antibodies; grades against background reading
Target sequence in this assay (P15692 whole entry, looked up, change not shown, the tested form may be a part): as above

T2 sequence (P15692 other isoform, or with tags, fused parts or gaps): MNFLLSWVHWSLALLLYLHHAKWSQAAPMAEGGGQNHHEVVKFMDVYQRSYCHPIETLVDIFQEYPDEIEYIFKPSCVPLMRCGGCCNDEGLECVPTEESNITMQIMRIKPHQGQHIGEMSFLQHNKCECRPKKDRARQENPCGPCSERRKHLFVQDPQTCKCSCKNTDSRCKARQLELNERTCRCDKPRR

B1: humanized EBV321 (antibody, V domains shown)
VH: EVQLVESGGGLVKPGGSLRLSCAASGFSFSNNDVMCWVRQAPGKGLEWIGCIMTTDVVTEYANWAKSRFTVSRDSAKNSVYLQMNSLRAEDTAVYFCARDSVGSPLMSFDLWGPGTLVTVSS
VL: DIQMTQSPSSLSASVGDRVTINCQASQSIYNNNELSWYQQKPGKPPKLLIYRASTLASGVPSRFSGSGSGTDFTLTISSLQPEDVATYYCGGYKSYSNDGNGFGGGTKVEIK
notes: also called hEBV321; humanized anti-VEGF RabMAb; source: 293-6E cells, L and H chain plasmids co-transfected, purified (protein A)
[1]
  IC50 of inhibition of VEGF-stimulated HUVEC proliferation: 0.008 nM
[2]
  binding result: binds
[3]
  Kd: 0.0119 nM
[4]
  Kd: 0.0115 nM
  koff: 1.88e-05 s⁻¹
  kon: 1.63e+06 M⁻¹ s⁻¹
[5]
  IC50: 3.2 nM
[6]
  inhibition of EBV321 binding to VEGF at 5 fold excess: 50%

B2: anti-VEGF RabMAb EBV321 (antibody, V domains shown)
VH: QSLEESGGDLVKPGASLTLSCTASGFSFSNNDVMCWVRQAPGKGLEWIGCIMTTDVVTEYANWAKSRFTVSKTSSSTVTLQLTSLTVADTATYFCARDSVGSPLMSFDLWGPGTLVTVSS
VL: LVMTQTPASVSAAVGGTVTINCQASQSVYGNNELSWYQQKPGQPPKLLIYRASTLASGVPSRFSGSGSGTQFTLTISGVQCADAATYYCGGYKSYSNDGNGFGGGTEVVVK
notes: also called parental EBV321; source: 293-6E cells, L and H chain plasmids co-transfected, purified (protein A)
[1]
  IC50 of inhibition of VEGF-stimulated HUVEC proliferation: 0.039 nM
[4]
  Kd: 0.419 nM
  koff: 0.00119 s⁻¹
  kon: 2.85e+06 M⁻¹ s⁻¹
[5]
  IC50: 4.1 nM
[7]
  IC50: 0.56 nM

B3: anti-VEGF RabMAb EBV302 (antibody, V domains shown)
VH: B2 VH with S20T, D32A, S76T, L82M
VL: B2 VL with T19I, S27N, V28L, G30N, R51W, S64K, G90A, D98G
notes: also called 302H/302L; source: 293-6E cells, L and H chain plasmids co-transfected, purified (protein A)
[7]
  IC50: 25.2 nM

B4: heavy chain of EBV307 paired with light chain of EBV321 (antibody, V domains shown)
VH: B2 VH with L3V, D9G, A15G, S16T, S20T, A23V, E59A, K72R, S76T, L82V
VL: B2 VL
notes: also called 307H/321L
[8]
  binding result: binds

B5: anti-VEGF RabMAb EBV307 (antibody, V domains shown)
VH: B2 VH with L3V, D9G, A15G, S16T, S20T, A23V, E59A, K72R, S76T, L82V
VL: B2 VL with P44R, A82F, G90S, S96Y, N100S
notes: also called 307H/307L; source: 293-6E cells, L and H chain plasmids co-transfected, purified (protein A)
[7]
  IC50: 2.62 nM

B6: heavy chain of EBV307 paired with light chain of EBV302 (antibody, V domains shown)
VH: B2 VH with L3V, D9G, A15G, S16T, S20T, A23V, E59A, K72R, S76T, L82V
VL: B2 VL with T19I, S27N, V28L, G30N, R51W, S64K, G90A, D98G
notes: also called 307H/302L
[8]
  binding result: binds

B7: heavy chain of EBV321 paired with light chain of EBV307 (antibody, V domains shown)
VH: B2 VH
VL: B2 VL with P44R, A82F, G90S, S96Y, N100S
[8]
  binding result: binds

B8: heavy chain of EBV321 paired with light chain of EBV320 (antibody, V domains shown)
VH: B2 VH
VL: B2 VL with S27N, V28L, G30N, R51W, S64K, G90A
[8]
  binding result: binds

B9: heavy chain of EBV321 paired with light chain of EBV302 (antibody, V domains shown)
VH: B2 VH
VL: B2 VL with T19I, S27N, V28L, G30N, R51W, S64K, G90A, D98G
[8]
  binding result: binds

B10: heavy chain of EBV302 paired with light chain of EBV321 (antibody, V domains shown)
VH: B2 VH with S20T, D32A, S76T, L82M
VL: B2 VL
notes: also called 302H/321L
[8]
  binding result: binds

B11: heavy chain of EBV307 paired with light chain of EBV320 (antibody, V domains shown)
VH: B2 VH with L3V, D9G, A15G, S16T, S20T, A23V, E59A, K72R, S76T, L82V
VL: B2 VL with S27N, V28L, G30N, R51W, S64K, G90A
notes: also called 307H/320L
[8]
  binding result: binds

B12: heavy chain of EBV320 paired with light chain of EBV307 (antibody, V domains shown)
VH: B2 VH with S20T, D32A, S76T, L82M
VL: B2 VL with P44R, A82F, G90S, S96Y, N100S
notes: also called 320H/307L
[8]
  binding result: binds

B13: heavy chain of EBV320 paired with light chain of EBV321 (antibody, V domains shown)
VH: B2 VH with S20T, D32A, S76T, L82M
VL: B2 VL
notes: also called 320H/321L
[8]
  binding result: binds

B14: heavy chain of EBV302 paired with light chain of EBV307 (antibody, V domains shown)
VH: B2 VH with S20T, D32A, S76T, L82M
VL: B2 VL with P44R, A82F, G90S, S96Y, N100S
notes: also called 302H/307L
[8]
  binding result: binds

B15: anti-VEGF RabMAb EBV320 (antibody, V domains shown)
VH: B2 VH with S20T, D32A, S76T, L82M
VL: B2 VL with S27N, V28L, G30N, R51W, S64K, G90A
notes: also called 320H/320L; source: 293-6E cells, L and H chain plasmids co-transfected, purified (protein A)
[7]
  IC50: 3.32 nM
